Source: article doi:10.1101/2022.04.13.488184

Target: Sulfolobus acidocaldarius SRP54 (Sulfolobus acidocaldarius) (UniProt O07853)
Assay: FRET or BRET

Chain of UniProt O07853 (O07853 whole entry): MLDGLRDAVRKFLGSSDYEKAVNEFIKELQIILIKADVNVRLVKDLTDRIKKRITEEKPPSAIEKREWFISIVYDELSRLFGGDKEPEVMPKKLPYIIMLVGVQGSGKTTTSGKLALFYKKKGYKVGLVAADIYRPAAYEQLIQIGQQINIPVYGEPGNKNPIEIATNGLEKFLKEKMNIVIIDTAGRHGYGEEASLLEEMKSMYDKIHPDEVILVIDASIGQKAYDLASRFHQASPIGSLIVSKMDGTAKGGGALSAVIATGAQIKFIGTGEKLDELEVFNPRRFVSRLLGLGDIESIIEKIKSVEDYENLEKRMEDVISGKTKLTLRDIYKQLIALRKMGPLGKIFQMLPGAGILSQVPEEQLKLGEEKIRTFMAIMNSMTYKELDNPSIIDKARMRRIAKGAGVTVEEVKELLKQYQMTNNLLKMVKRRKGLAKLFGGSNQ

Row | Substance | Kd
1 | FtsYΔαN1 (Tyr87-Ser369) (from UniProt P27414 87-369) (domain or fragment) | 75 nM
2 | FtsYΔαN2 (Ser109-Ser369) (from UniProt P27414 109-369) (domain or fragment) | 114 nM
3 | FtsYΔαN3 (Gly129-Ser369) (from UniProt P27414 129-369) (domain or fragment) | 272 nM
